# Bridges are numbered along the chain shown (N, C = ends). Where no end group is shown, it is not given here.
# T1: GIP receptor (UniProt P48546 22-466)
# T1 sequence (looked up): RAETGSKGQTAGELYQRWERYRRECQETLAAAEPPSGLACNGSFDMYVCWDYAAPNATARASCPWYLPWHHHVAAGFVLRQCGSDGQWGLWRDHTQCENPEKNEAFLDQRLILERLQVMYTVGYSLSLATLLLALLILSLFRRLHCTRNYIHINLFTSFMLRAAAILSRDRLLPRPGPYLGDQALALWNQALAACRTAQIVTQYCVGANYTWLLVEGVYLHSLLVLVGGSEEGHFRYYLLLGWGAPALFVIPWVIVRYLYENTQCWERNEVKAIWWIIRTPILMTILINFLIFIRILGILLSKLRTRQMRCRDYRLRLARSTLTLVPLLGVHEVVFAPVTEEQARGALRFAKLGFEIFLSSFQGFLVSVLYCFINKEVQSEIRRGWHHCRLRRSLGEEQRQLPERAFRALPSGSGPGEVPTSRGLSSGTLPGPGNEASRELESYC
# B1: mt-61 (peptide)
# peptide: HSQGTFTSDYSKYLDEIHQKEFIAWLMNT-NH2
# modifications: lactam 16-20; N-terminus assumed
# SMILES: CC[C@H](C)[C@H](NC(=O)[C@H](Cc1ccccc1)NC(=O)[C@H](CCC(=O)O)NC(=O)[C@@H]1CCCCNC(=O)CC[C@H](NC(=O)[C@H](CC(=O)O)NC(=O)[C@H](CC(C)C)NC(=O)[C@H](Cc2ccc(O)cc2)NC(=O)[C@H](CCCCN)NC(=O)[C@H](CO)NC(=O)[C@H](Cc2ccc(O)cc2)NC(=O)[C@H](CC(=O)O)NC(=O)[C@H](CO)NC(=O)[C@@H](NC(=O)[C@H](Cc2ccccc2)NC(=O)[C@@H](NC(=O)CNC(=O)[C@H](CCC(N)=O)NC(=O)[C@H](CO)NC(=O)[C@@H](N)Cc2c[nH]cn2)[C@@H](C)O)[C@@H](C)O)C(=O)N[C@@H]([C@@H](C)CC)C(=O)N[C@@H](Cc2c[nH]cn2)C(=O)N[C@@H](CCC(N)=O)C(=O)N1)C(=O)N[C@@H](C)C(=O)N[C@@H](Cc1c[nH]c2ccccc12)C(=O)N[C@@H](CC(C)C)C(=O)N[C@@H](CCSC)C(=O)N[C@@H](CC(N)=O)C(=O)N[C@H](C(N)=O)[C@@H](C)O
# B2: mt-69 (peptide)
# peptide: HSQGTFTSDYSKYLDKIHQEEFIAWLMNT-NH2
# modifications: lactam 16-20; N-terminus assumed
# SMILES: CC[C@H](C)[C@H](NC(=O)[C@H](Cc1ccccc1)NC(=O)[C@H](CCC(=O)O)NC(=O)[C@@H]1CCC(=O)NCCCC[C@H](NC(=O)[C@H](CC(=O)O)NC(=O)[C@H](CC(C)C)NC(=O)[C@H](Cc2ccc(O)cc2)NC(=O)[C@H](CCCCN)NC(=O)[C@H](CO)NC(=O)[C@H](Cc2ccc(O)cc2)NC(=O)[C@H](CC(=O)O)NC(=O)[C@H](CO)NC(=O)[C@@H](NC(=O)[C@H](Cc2ccccc2)NC(=O)[C@@H](NC(=O)CNC(=O)[C@H](CCC(N)=O)NC(=O)[C@H](CO)NC(=O)[C@@H](N)Cc2c[nH]cn2)[C@@H](C)O)[C@@H](C)O)C(=O)N[C@@H]([C@@H](C)CC)C(=O)N[C@@H](Cc2c[nH]cn2)C(=O)N[C@@H](CCC(N)=O)C(=O)N1)C(=O)N[C@@H](C)C(=O)N[C@@H](Cc1c[nH]c2ccccc12)C(=O)N[C@@H](CC(C)C)C(=O)N[C@@H](CCSC)C(=O)N[C@@H](CC(N)=O)C(=O)N[C@H](C(N)=O)[C@@H](C)O
# B3: mt-63 (peptide)
# peptide: HSQGTFTSDYSKYLDEIHQKEFIAWLMNT-NH2
# modifications: lactam 12-16; N-terminus assumed
# SMILES: CC[C@H](C)[C@H](NC(=O)[C@H](Cc1ccccc1)NC(=O)[C@H](CCC(=O)O)NC(=O)[C@H](CCCCN)NC(=O)[C@H](CCC(N)=O)NC(=O)[C@H](Cc1c[nH]cn1)NC(=O)[C@@H](NC(=O)[C@@H]1CCC(=O)NCCCC[C@H](NC(=O)[C@H](CO)NC(=O)[C@H](Cc2ccc(O)cc2)NC(=O)[C@H](CC(=O)O)NC(=O)[C@H](CO)NC(=O)[C@@H](NC(=O)[C@H](Cc2ccccc2)NC(=O)[C@@H](NC(=O)CNC(=O)[C@H](CCC(N)=O)NC(=O)[C@H](CO)NC(=O)[C@@H](N)Cc2c[nH]cn2)[C@@H](C)O)[C@@H](C)O)C(=O)N[C@@H](Cc2ccc(O)cc2)C(=O)N[C@@H](CC(C)C)C(=O)N[C@@H](CC(=O)O)C(=O)N1)[C@@H](C)CC)C(=O)N[C@@H](C)C(=O)N[C@@H](Cc1c[nH]c2ccccc12)C(=O)N[C@@H](CC(C)C)C(=O)N[C@@H](CCSC)C(=O)N[C@@H](CC(N)=O)C(=O)N[C@H](C(N)=O)[C@@H](C)O
# Target: T1, GIP receptor
# Assay: cell-based or functional assay
EC50,relative activity,Binder
9.99 nM,–,B1
14.6 nM,0.57%,B2
71.3 nM,0.06%,YAPGTFISDYSIAMDKIHQQDFVNWLLAQKGKKNWLKHNITQ-NH2 [mt-101]

# Target: GLP-1 receptor (UniProt P43220 24-463, limits assumed)
# Assay: cell-based or functional assay
row,EC50,Binder
1,0.82 nM,HSQGTFTSDYSKYLDKIHQEEFIAWLMNT-NH2 [mt-68]
2,0.18 nM,B1
3,0.41 nM,B2
4,0.31 nM,B3

# Reference: US20110166062A1 (INDIANA UNIVERSITY RESEARCH AND TECHNOLOGY, published 2011)
